Laboratory results: patent US20200199231A1 (Genmab, published 2020)

T1: CD20 KDD mutant (human, UniProt P11836 1-297)
T1 construct: whole, on cells; Transiently expressed in HEK293F cells; also called T159K/N163D/N166D
T1 sequence (looked up): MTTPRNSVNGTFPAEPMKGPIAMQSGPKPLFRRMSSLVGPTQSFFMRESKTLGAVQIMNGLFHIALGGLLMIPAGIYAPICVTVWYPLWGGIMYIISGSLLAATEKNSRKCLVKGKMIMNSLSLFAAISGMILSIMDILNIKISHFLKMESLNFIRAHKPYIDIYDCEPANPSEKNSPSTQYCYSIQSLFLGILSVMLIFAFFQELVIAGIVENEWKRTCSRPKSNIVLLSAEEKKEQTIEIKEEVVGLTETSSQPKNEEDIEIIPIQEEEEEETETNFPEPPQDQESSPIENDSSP

T2: CD20-AxP (human, UniProt P11836 1-297)
T2 construct: whole, on cells; Transiently expressed in HEK293F cells; also called AxP mutant; CD20 mutant (CD20-AxP)
T2 sequence (looked up): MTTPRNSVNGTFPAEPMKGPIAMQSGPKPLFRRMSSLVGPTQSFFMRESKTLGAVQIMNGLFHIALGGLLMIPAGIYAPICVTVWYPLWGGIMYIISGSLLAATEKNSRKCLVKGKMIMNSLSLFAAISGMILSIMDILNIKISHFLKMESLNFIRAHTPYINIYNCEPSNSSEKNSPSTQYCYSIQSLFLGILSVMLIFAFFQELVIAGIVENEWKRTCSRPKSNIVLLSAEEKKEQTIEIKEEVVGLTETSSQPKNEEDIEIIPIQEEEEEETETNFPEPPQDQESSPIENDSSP

T3: human CD20 (human, UniProt P11836 1-297)
T3 construct: whole, on cells; On Daudi and other human B cell lines, on human B cells in blood, or transiently expressed in HEK293F cells (construct pEE12.4CD20HS-GA); also called wild type CD20; WT CD20
T3 sequence (looked up): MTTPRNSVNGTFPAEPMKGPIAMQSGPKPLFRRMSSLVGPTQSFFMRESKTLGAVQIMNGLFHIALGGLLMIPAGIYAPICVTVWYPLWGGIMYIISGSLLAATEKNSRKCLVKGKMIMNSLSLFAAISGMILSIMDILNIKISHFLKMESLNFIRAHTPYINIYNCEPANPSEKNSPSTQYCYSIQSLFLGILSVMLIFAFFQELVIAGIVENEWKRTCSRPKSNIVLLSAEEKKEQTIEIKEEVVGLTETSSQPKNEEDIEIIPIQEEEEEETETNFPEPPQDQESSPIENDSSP


Columns and labels:
[1] = target: T1, CD20 KDD mutant; assay: flow cytometry, HEK293F cells expressing CD20 KDD mutant
Protocol: (§1) PCR was performed on a Tgradient Thermocycler 96 (Biometra) using a 35 cycle program of: +95° C. for 15 min, followed by 35 cycles of: +94° C. for 30 sec, anneal: 55° C. for 30 sec and extension: +72° C. for 2 min, followed by a final extension step at 72° C. for 10 min and subsequent storage at 4° C. The completed reactions were analyzed by agarose gel electrophoresis. See Table 11 for details of primer pairs used for colony PCR. DNA sequencing: Plasmid DNA samples were send to AGOWA (Berlin, Germany) for sequence analysis. Sequences were analyzed using the VectorNTI software package (Informax, Frederick, Md., USA).
(§2) Mutagenesis: The mutagenesis was performed, using the QuikChange® XL Site-Directed Mutagenesis kit (Cat 200517-5, Lot 1120630, Stratagene Europe) according to the manufacturer's instructions. Mutagenesis reactions were concentrated using ethanol precipitation and transformed into either oneshot DH5α-TIR competent E. coli cells or electroporated into ElectroTen-Blue® Electroporation-Competent Cells. Colonies were checked by colony PCR and restriction digestion prior to transfection. […] Anti-CD20 Antibody binding: HEK293F cells were taken up in staining buffer (PBS supplemented with 0.1% BSA and 0.02% NaN₃) and added to round bottom plates (1-3×10⁵/well in 100 μL). […] After washing twice in staining buffer, cells were incubated in 50 μL secondary antibody at 4° C. for 30 min. As a secondary antibody, R-Phycoerythrin (PE)-conjugated goat-anti-human IgG F(ab′)₂ was used, as described supra. Next, cells were washed once in staining buffer, re-suspended in 150 μL staining buffer and analyzed on a flow cytometer (FACSCanto-720, Becton Dickinson, San Diego, Calif., USA) and 10,000 events per sample were acquired at high flow rate. Binding curves were analyzed using non-linear regression (sigmoidal dose-response with variable slope) using GraphPad Prism V75.04 software (GraphPad Software, San Diego, Calif., USA).

[2] = target: T2, CD20-AxP; assay: flow cytometry, HEK293F transfectants, MFI mutant/MFI wt at 10 µg/mL
Protocol: (§3) As a secondary antibody, R-Phycoerythrin (PE)-conjugated goat-anti-human IgG F(ab′)₂ was used, as described supra. Next, cells were washed once in staining buffer, re-suspended in 150 μL staining buffer and analyzed on a flow cytometer (FACSCanto-720, Becton Dickinson, San Diego, Calif., USA) and 10,000 events per sample were acquired at high flow rate. Binding curves were analyzed using non-linear regression (sigmoidal dose-response with variable slope) using GraphPad Prism V75.04 software (GraphPad Software, San Diego, Calif., USA).
(§4) Numbers indicate the percentage of binding to the CD20 mutants, relative to binding to wild type CD20, at 10 μg/mL. The percentage of binding was calculated by the following formula: (MFI binding to CD20 mutant)/(MFI binding CD20 wt) × 100%

[3] = target: T1, CD20 KDD mutant; assay: as above
Protocol: as §3, §4

[4] = target: T3, human CD20; assay: flow cytometry on Daudi cells (CD20-positive, CD3-negative); PE-conjugated goat anti-human IgG F(ab')2; median FI (PE)
Protocol: (§5) In addition to the non-activating mutations, L234F, L235E, D265A, on both arms, the bispecific antibody contained an F405L mutation on one arm and a K409R mutation on the other arm.
(§6) Cells (1×10⁵ cells/well) were incubated in polystyrene 96-well round-bottom plates (Greiner bio-one, cat. no. 650101) with serial dilutions of antibodies (range 0.041 to 30 μg/mL in 3-fold dilution steps [A-E] and 0.00061 to 10 μg/mL in 4-fold dilution steps [F-I]) in 100 μL PBS/0.1% BSA/0.02% azide (from here designated as staining buffer) at 4° C. for 30 min.
(§7) After washing twice in staining buffer, cells were incubated in 50 μL secondary antibody at 4° C. for 30 min. As a secondary antibody, R-Phycoerythrin (PE)-conjugated goat-anti-human IgG F(ab′)₂ (cat. no. 109-116-098, Jackson ImmunoResearch Laboratories, Inc., West Grove, Pa.) diluted 1:200 in staining buffer, was used for all experiments. Next, cells were washed twice in staining buffer, re-suspended in 30 μL staining buffer and analyzed on an iQue screener (Intellicyt Corporation, USA) (for FIG. 1A-E) or re-suspended in 100 μL staining buffer and analyzed on a FACSCANTOII (BD Biosciences) (FIG. 1F-I). Binding curves were analyzed using non-linear regression (sigmoidal dose-response with variable slope) using GraphPad Prism V75.04 software (GraphPad Software, San Diego, Calif., USA).

[5] = target: T3, human CD20; assay: flow cytometry on HEK293F cells transiently expressing wild type CD20; PE-conjugated goat anti-human IgG F(ab')2; MFI
Protocol: as §1, §2

[6] = target: T3, human CD20; assay: flow cytometry on Daudi cells (CD20-positive, CD3-negative); PE-conjugated goat anti-human IgG F(ab')2; median FI (PE); remark: listed apart in the source
Protocol: as §5, §6, §7

Row | Binder | binding result [1] | % of wt CD20 binding [2] | % of wt CD20 binding [3] | EC50 (read off the curve) [4] | EC50 (read off the curve) [5] | EC50 (read off the curve) [6]
1 | bsIgG1-huCD3-H1L1-FEALxCD20-2C6-FEAR (bispecific antibody, also called CD3x2C6; huCD3x2C6) heavy 1: not shown light: not shown heavy 2: AVQLVESGGGLVQPGRSLRLSCAASGFTFGDYTMHWVRQAPGKGLEWVSGISWNSGSIGYADSVKGRFTISRDNAKNSLYLQMNSLRAEDTALYYCTKDNQYGSGSTYGLGVWGQGTLVTVSSASTKGPSVFPLAPSSKSTSGGTAALGCLVKDYFPEPVTVSWNSGALTSGVHTFPAVLQSSGLYSLSSVVTVPSSSLGTQTYICNVNHKPSNTKVDKRVEPKSCDKTHTCPPCPAPEFEGGPSVFLFPPKPKDTLMISRTPEVTCVVVAVSHEDPEVKFNWYVDGVEVHNAKTKPREEQYNSTYRVVSVLTVLHQDWLNGKEYKCKVSNKALPAPIEKTISKAKGQPREPQVYTLPPSREEMTKNQVSLTCLVKGFYPSDIAVEWESNGQPENNYKTTPPVLDSDGSFFLYSRLTVDKSRWQQGNVFSCSVMHEALHNHYTQKSLSLSPGK VL: EIVLTQSPATLSLSPGERATLSCRASQSVSSYLAWYQQKPGQAPRLLIYDASNRATGIPARFSGSGSGTDFTLTISSLEPEDFAVYYCQQRSNWPLTFGGGTKVEIK | no binding (tested: 0.0015-10 µg/mL) | 92% | 3% | ~0.9 µg/mL | ~0.1 µg/mL | –
2 | IgG1-7D8-FEAR (antibody, V domains shown) VH: EVQLVESGGGLVQPDRSLRLSCAASGFTFHDYAMHWVRQAPGKGLEWVSTISWNSGTIGYADSVKGRFTISRDNAKNSLYLQMNSLRAEDTALYYCAKDIQYGNYYYGMDVWGQGTTVTVSS VL: EIVLTQSPATLSLSPGERATLSCRASQSVSSYLAWYQQKPGQAPRLLIYDASNRATGIPARFSGSGSGTDFTLTISSLEPEDFAVYYCQQRSNWPITFGQGTRLEIK | – | – | – | ~0.3 µg/mL | – | ~0.3 µg/mL
